One molecule from article PMC10620080, “The sex-specific factor SOA controls dosage compensation in Anopheles mosquitoes” can be followed below.

For this series, the target named is T1, MBP-SOA(1-331), myb+BTB (Anopheles gambiae, UniProt Q7Q6N8 1-331).
T1 sequence: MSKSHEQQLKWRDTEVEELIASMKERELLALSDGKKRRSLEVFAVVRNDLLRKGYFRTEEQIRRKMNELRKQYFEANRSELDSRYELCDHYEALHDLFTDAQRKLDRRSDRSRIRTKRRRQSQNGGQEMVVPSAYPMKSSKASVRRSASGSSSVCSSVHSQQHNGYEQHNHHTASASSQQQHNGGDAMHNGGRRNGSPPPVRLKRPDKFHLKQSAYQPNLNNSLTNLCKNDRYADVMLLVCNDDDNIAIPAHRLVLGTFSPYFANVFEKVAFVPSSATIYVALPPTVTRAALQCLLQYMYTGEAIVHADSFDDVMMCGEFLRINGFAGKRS
The series can be described thus: fluorescence polarization; FP: 10 mM Na-HEPES pH 7.4, 150 mM NaCl, 1 mM TCEP, 0.1 g/l BSA, 5% glycerol, 0.05% Triton X-100, 5 nM DNA, 20 C; EMSA: 20 mM HEPES-KOH pH 7.5, 100 mM KCl, 0.05% NP-40, room temperature. The following applies: protein: recombinant; tags: N-terminal His6-MBP; label: Cy5 on one strand; blunt. In general terms: In fluorescence polarisation assays a small probe gives low polarisation when free and higher when bound to something large.

B1: CA10 dsDNA 20mer (dsDNA)
DNA 1: CACACACACACACACACACA
DNA 2: TGTGTGTGTGTGTGTGTGTG
The Kd is the equilibrium constant for the complex coming apart. As for B1, the Kd is 40 nM.
